This is an account of results in patent publication US20110059079A1 (XOMA TECHNOLOGY, published 2011).

Experiment in all cases: ELISA on plate-coated toxin domain
(In general: In an ELISA, binding on a coated surface is turned into a signal by an enzyme label.)

The target of experiment [1] is BoNT/A heavy-chain N-terminus (HCN) domain (UniProt P0DPI0 871-1092).
Experiment [2] deals with BoNT/A light-chain heavy-chain N-terminus (LCHN) domain (UniProt P0DPI0 1-870).
Experiment [3] concerns the target BoNT/A heavy-chain C-terminus (HCC) domain (UniProt P0DPI0 1093-1296).

BoNT/A heavy-chain C-terminus (HCC) domain, sequence (P0DPI0 1093-1296 limits assumed): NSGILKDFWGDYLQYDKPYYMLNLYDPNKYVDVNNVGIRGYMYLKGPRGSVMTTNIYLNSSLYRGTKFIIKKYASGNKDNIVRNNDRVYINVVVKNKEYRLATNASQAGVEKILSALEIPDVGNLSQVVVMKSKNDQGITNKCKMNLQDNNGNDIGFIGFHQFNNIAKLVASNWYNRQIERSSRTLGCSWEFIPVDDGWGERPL
BoNT/A light-chain heavy-chain N-terminus (LCHN) domain, sequence (P0DPI0 1-870 limits assumed): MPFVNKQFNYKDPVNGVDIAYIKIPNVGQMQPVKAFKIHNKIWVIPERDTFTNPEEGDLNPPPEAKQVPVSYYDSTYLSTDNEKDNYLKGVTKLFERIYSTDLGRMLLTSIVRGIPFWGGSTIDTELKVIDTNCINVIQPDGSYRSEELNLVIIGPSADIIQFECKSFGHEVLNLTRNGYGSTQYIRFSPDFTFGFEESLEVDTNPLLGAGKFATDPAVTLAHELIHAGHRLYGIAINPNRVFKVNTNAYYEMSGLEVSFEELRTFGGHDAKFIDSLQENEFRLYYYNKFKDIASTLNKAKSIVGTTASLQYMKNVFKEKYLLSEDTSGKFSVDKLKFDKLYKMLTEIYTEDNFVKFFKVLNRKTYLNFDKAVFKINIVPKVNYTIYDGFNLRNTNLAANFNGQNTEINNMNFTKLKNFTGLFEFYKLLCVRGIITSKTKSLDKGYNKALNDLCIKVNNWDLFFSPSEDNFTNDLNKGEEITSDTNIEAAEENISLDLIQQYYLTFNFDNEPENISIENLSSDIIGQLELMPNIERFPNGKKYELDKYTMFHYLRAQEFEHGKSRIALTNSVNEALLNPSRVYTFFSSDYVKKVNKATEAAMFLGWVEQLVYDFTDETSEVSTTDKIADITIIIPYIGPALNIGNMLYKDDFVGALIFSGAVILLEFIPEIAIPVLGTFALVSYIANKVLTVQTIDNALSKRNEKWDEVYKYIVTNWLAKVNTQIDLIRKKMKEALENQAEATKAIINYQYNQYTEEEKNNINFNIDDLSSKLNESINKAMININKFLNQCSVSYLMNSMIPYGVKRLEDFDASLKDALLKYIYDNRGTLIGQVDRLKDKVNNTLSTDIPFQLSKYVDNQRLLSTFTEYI
BoNT/A heavy-chain N-terminus (HCN) domain, sequence (P0DPI0 871-1092 limits assumed): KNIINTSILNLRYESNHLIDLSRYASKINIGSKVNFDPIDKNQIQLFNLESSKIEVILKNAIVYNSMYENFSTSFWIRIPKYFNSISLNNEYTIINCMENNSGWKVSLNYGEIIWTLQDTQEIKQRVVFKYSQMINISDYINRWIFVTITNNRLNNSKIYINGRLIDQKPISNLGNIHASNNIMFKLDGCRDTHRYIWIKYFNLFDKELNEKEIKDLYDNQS

B1: ABT02 (antibody, V domains shown)
VH: QVQLVQSGGGVVHPGRSLKLSCAGSGFTFSDYDMHWVRQAPGKGLEWVAVMWFDGTEKYSAESVKGRFTISRDNSKNTLFLQMNSLRADDTAVYYCAREPDWLLWGDRGALDVWGQGTTVTVSS
VL: DIVMTQSPSTLSASVGDRVTITCWASQSISSRLAWYQQKPGKAPKLLMYEATSLGSGVPSRFSGSGSGTEFTLTISSLQPDDFAAYYCQHYDTYPYTFGQGTKLEIK
Regarding B1, the binding result in experiment [1] and in experiment [2] was “no binding” throughout.

B2: ABT03 (antibody, V domains shown)
VH: QVQLQQSGGGLVQPGGSLRLSCAASGFTFSNYAMTWVRQAPGKGLEWVSSISVGGSDTYYADSVKGRFTVSRDNSKNTLLLQMNSLRAEDTAVYYCAKVRTKYCSSLSCFAGFDSWGQGTRVTVSS
VL: DVVMTQSPSSLSASVGDRVTITCRASQSISSYLHWYQQKPGKAPTLLISDASSSQSGVPSRFSGSRFGTDFTLTISSLQPEDFATYYCQQSYSTRALTFGGGTKVEIK
Take B2: the binding result in experiment [3] and in experiment [1] was “no binding” each time.

B3: ABT01 (antibody, V domains shown)
VH: QVQLQQSGGGLVQPGGSLRLSCAASGFTFKYDYMYWIRQAPGKGLEWVATISDGGSYTYYSDSVEGRFTTSRDNSKNTLYLQMNSLRAEDTAIYYCSRYRYDDAMDYWGQGTLVTVSS
VL: EIVLTQSPATLSLSPGERATISCRASESVDSYGHSFMQWYQQKPGQAPRLLIYRASNLEPGIPARFSGSGSGTDFTLTISSLEPEDFAVYYCQQGNEVPFTFGQGTKVEIK
Regarding B3, the binding result in experiment [3] and in experiment [2] was “no binding” in each case.
